Fewer inactive variants are shown than the library holds.
Experiments:
[1] = test system: biotinyl-Ile-oxazolone; assay: self-aminoacylation, catalytic enhancement (BIO) (fold over background); higher = more active; k-Seq, kA / k0A0; sequences stand for … in GGGAAUGGAUCCACAUCUACGAAUUC…UUCACUGCAGACUUGACGAAGCUG
Procedure, shortened: (§1)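 Mutagenized RNA pools with a 21-nt variable region (0.43 μM) were reacted with each biotinyl-aminoacyl-oxazolone at 2–1250 μM for 90 minutes at room temperature, in 50 μL HEPES/NaCl/KCl/MgCl2/CaCl2 buffer containing 5% acetonitrile at pH 6.9–7.0. RNA captured on streptavidin was quantified by triplicate qPCR and by Illumina sequencing. The fraction reacted for each sequence was fit to a pseudo-first-order model with bootstrapping, and catalytic enhancement is the median kA divided by the uncatalyzed rate, taken as the low-activity peak of a bimodal Gaussian fit.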

[2] = test system: biotinyl-Trp-oxazolone; assay: self-aminoacylation, catalytic enhancement (BWO) (fold over background); higher = more active; k-Seq, kA / k0A0; sequences stand for … in GGGAAUGGAUCCACAUCUACGAAUUC…UUCACUGCAGACUUGACGAAGCUG
Procedure, shortened: as §1

[3] = test system: biotinyl-Phe-oxazolone; assay: self-aminoacylation, catalytic enhancement (BFO) (fold over background); higher = more active; k-Seq, kA / k0A0; sequences stand for … in GGGAAUGGAUCCACAUCUACGAAUUC…UUCACUGCAGACUUGACGAAGCUG
Procedure, shortened: as §1

[4] = test system: biotinyl-Leu-oxazolone; assay: self-aminoacylation, catalytic enhancement (BLO) (fold over background); higher = more active; k-Seq, kA / k0A0; sequences stand for … in GGGAAUGGAUCCACAUCUACGAAUUC…UUCACUGCAGACUUGACGAAGCUG
Procedure, shortened: as §1

[5] = test system: biotinyl-Val-oxazolone; assay: self-aminoacylation, catalytic enhancement (BVO) (fold over background); higher = more active; k-Seq, kA / k0A0; sequences stand for … in GGGAAUGGAUCCACAUCUACGAAUUC…UUCACUGCAGACUUGACGAAGCUG
Procedure, shortened: as §1

[6] = test system: biotinyl-Met-oxazolone; assay: self-aminoacylation, catalytic enhancement (BMO) (fold over background); higher = more active; k-Seq, kA / k0A0; sequences stand for … in GGGAAUGGAUCCACAUCUACGAAUUC…UUCACUGCAGACUUGACGAAGCUG
Procedure, shortened: as §1

Sequence | self-aminoacylation [1] | self-aminoacylation [2] | self-aminoacylation [3] | self-aminoacylation [4] | self-aminoacylation [5] | self-aminoacylation [6]
AUUACCCUGGUCAUCGCGUUA [Fam2.1 aminoacylation ribozyme variant] | 2.27 | 4.12 | 12.7 | 2.73 | 2.32 | 2.71
AUUACCCUGGUCUUAGAGUGA [Fam2.1 aminoacylation ribozyme variant] | 4.28 | 9.81 | 39.5 | 7.33 | 4.31 | 7.82
CUACUUUAAAUAAUCGGUCUG [Fam1A.1 aminoacylation ribozyme variant] | 0.923 | 0.885 | 1.03 | 0.82 | 0.902 | 0.869
AAGCUUGCUAAUACUCGCAAG [Fam3.1 aminoacylation ribozyme variant] | 1.5 | 1.98 | 1.31 | 0.856 | 1.26 | 0.693
AAGUUUGCUAACAGUCGCAAA [Fam3.1 aminoacylation ribozyme variant] | 1.43 | 1.58 | 2.28 | 1.23 | 0.995 | 1.06
CUACUUUAUACAAUCGGUCUG [Fam1A.1 aminoacylation ribozyme variant] | 0.857 | 0.626 | 0.815 | 0.808 | 0.882 | 0.832
GUACUUCAAACAAUCGGUCUU [Fam1A.1 aminoacylation ribozyme variant] | 1.43 | 12 | 12.8 | 1.49 | 1.3 | 1.14
AUUCACCUAGGCCAUCGGGAG [Fam2.2 aminoacylation ribozyme variant] | 1.1 | 1.05 | 0.861 | 0.965 | 1.39 | 1.69
CCACACUUCAAGCAUUCGGUG [Fam1B.1 aminoacylation ribozyme variant] | 5.54 | 7.88 | 68.5 | 11 | 5.97 | 8.89
AAGUUUGCUAAUAGGCGCUAG [Fam3.1 aminoacylation ribozyme variant] | 0.648 | 0.561 | 0.86 | 0.647 | 0.722 | 0.723
AAGUUUGCUAUGAGUCGCAAG [Fam3.1 aminoacylation ribozyme variant] | 0.692 | 0.54 | 0.664 | 0.778 | 0.974 | 0.644
AAGUUUGCUCAUAGUCUCAAG [Fam3.1 aminoacylation ribozyme variant] | 0.872 | 0.98 | 1.98 | 0.977 | 0.901 | 0.869
CUACACUUCAAGCAAUCAGUC [Fam1B.1 aminoacylation ribozyme variant] | 0.668 | 6.32 | 21 | 0.754 | 0.886 | 0.718
AAUACCCUGGUCAUCGAGCGA [Fam2.1 aminoacylation ribozyme variant] | 1.65 | 2.75 | 1.56 | 1.55 | 1.66 | 2.03
UCACACUUCAAGCAAUCGGUA [Fam1B.1 aminoacylation ribozyme variant] | 0.993 | 1.49 | 1.13 | 1.04 | 1.12 | 1.1
CUACUUCAAACAAUCCGUGUG [Fam1A.1 aminoacylation ribozyme variant] | 1.99 | 2.52 | 7.45 | 3.84 | 1.88 | 2.86
AAGUUUGCAAAUCGUCGCAAG [Fam3.1 aminoacylation ribozyme variant] | 1.09 | 1.21 | 0.933 | 1.18 | 0.93 | 0.985
CCACACUUCAAGCAAACAGUC [Fam1B.1 aminoacylation ribozyme variant] | 0.816 | 0.375 | 1.09 | 0.674 | 0.757 | 0.609
AAGUUUGCUCUUAGUCGCAAG [Fam3.1 aminoacylation ribozyme variant] | 0.73 | 0.65 | 1.53 | 0.786 | 0.813 | 0.758
AUUACCCUGGUCUUCGAUUGA [Fam2.1 aminoacylation ribozyme variant] | 0.769 | 0.41 | 0.383 | 0.67 | 0.779 | 0.723
AUUCACCUAGGCCAUCGGGUG [Fam2.2 aminoacylation ribozyme variant] | 3.04 | 4.09 | 28.6 | 5.51 | 3.45 | 4.47
AUUCACCUAGGUCAUCGGUUC [Fam2.2 aminoacylation ribozyme variant] | 1.33 | 1.07 | 4.35 | 1.19 | 1.43 | 1.43
AUUCGCCUAGGUCAUCGGAUG [Fam2.2 aminoacylation ribozyme variant] | 0.941 | 0.704 | 0.493 | 0.903 | 1.07 | 0.94
AAGUUUGCUAAUAGUCGUAAC [Fam3.1 aminoacylation ribozyme variant] | 0.726 | 0.778 | 1.02 | 0.68 | 0.822 | 0.658
AUUCACCAAGGUCAUCGGGCG [Fam2.2 aminoacylation ribozyme variant] | 3.24 | 3.82 | 16 | 4.59 | 3.64 | 4.07
AUUCACCUAUGUCAUCGGGUG [Fam2.2 aminoacylation ribozyme variant] | 3.61 | 5.45 | 36.7 | 7.41 | 3.48 | 5.41

Sequence | self-aminoacylation [1] | self-aminoacylation [2] | self-aminoacylation [3] | self-aminoacylation [4] | self-aminoacylation [5] | self-aminoacylation [6]
CUACUGCAAACUAUCGGUCUG [Fam1A.1 aminoacylation ribozyme variant] | 1.02 | 1.18 | 1.14 | 1.17 | 1.12 | 0.824
AUUCACCUAGGUCCUCGCGUG [Fam2.2 aminoacylation ribozyme variant] | 4.84 | 6.43 | 51.4 | 10.4 | 4.96 | 7.68
AUUCACCUGGGUAAUCGGGUG [Fam2.2 aminoacylation ribozyme variant] | 3.15 | 4.84 | 30.1 | 5.16 | 2.88 | 4.71
CCUAACUUCAAGCAAUCGGUC [Fam1B.1 aminoacylation ribozyme variant] | 1.18 | 19.9 | 46.5 | 1.54 | 1.01 | 1.02
AUUACCCUGGUCAACCAGUGA [Fam2.1 aminoacylation ribozyme variant] | 3.9 | 7.15 | 39.2 | 6.76 | 3.78 | 6.42
AUAACCCGGGUCAUCGAGUGA [Fam2.1 aminoacylation ribozyme variant] | 3.78 | 7.61 | 45.7 | 8.98 | 3.29 | 6.42
ACUACCCUGGUCAUCGAGUGA [Fam2.1 aminoacylation ribozyme variant] | 16.2 | 45.2 | 266 | 43.4 | 17.4 | 44.3
AAGCUUUCUAAUAGUCGCAAG [Fam3.1 aminoacylation ribozyme variant] | 2.02 | 1.93 | 3.08 | 1.81 | 1.71 | 1.44
AUUCACAUAGGUCUUCGGGUG [Fam2.2 aminoacylation ribozyme variant] | 4.26 | 5.51 | 39.4 | 5.35 | 4.59 | 4.21
CUACUUCAAAUAAUCGCUCUG [Fam1A.1 aminoacylation ribozyme variant] | 0.6 | 1.23 | 2.37 | 0.583 | 0.637 | 0.562
AAGUUUGCUAAUAGUCACGAG [Fam3.1 aminoacylation ribozyme variant] | 1.26 | 1.34 | 1.54 | 0.881 | 1.22 | 1.33
AUUAACCAAGGUCAUCGGGUG [Fam2.2 aminoacylation ribozyme variant] | 3.81 | 6.8 | 43.2 | 9.4 | 4.19 | 7.25
AUUACCCGGGUUAUCGAGUGA [Fam2.1 aminoacylation ribozyme variant] | 5.68 | 14.6 | 94.5 | 14.4 | 5.94 | 13.3
CCACAAUUCAAGUAAUCGGUC [Fam1B.1 aminoacylation ribozyme variant] | 0.96 | 1.36 | 2.55 | 0.898 | 0.91 | 0.906
GCACACUUCAAGCGAUCGGUC [Fam1B.1 aminoacylation ribozyme variant] | 1.66 | 2.19 | 1.41 | 1.54 | 1.82 | 1.33
AUUAACAUAGGUCAUCGGGUG [Fam2.2 aminoacylation ribozyme variant] | 3.92 | 6.55 | 38 | 7 | 3.51 | 6.29
AAUACCCUGGUCAUUGAGUGA [Fam2.1 aminoacylation ribozyme variant] | 2.98 | 6.33 | 17.1 | 5.25 | 2.9 | 5.79
UCACACUUCAAGCAAACGGUC [Fam1B.1 aminoacylation ribozyme variant] | 0.639 | 0.586 | 0.679 | 0.506 | 0.792 | 0.682
CCACAAUUCAAGCAAUCUGUC [Fam1B.1 aminoacylation ribozyme variant] | 0.576 | 0.559 | 0.965 | 0.558 | 0.746 | 0.524
GUUACCCUGGUCAUCGAGGGA [Fam2.1 aminoacylation ribozyme variant] | 3.06 | 5.33 | 4.93 | 4.18 | 2.7 | 5.05
AUCACCCUGGUCAUCGCGUGA [Fam2.1 aminoacylation ribozyme variant] | 12.1 | 33.8 | 215 | 36.4 | 17.1 | 33.9
ACGUUUGCUAAUACUCGCAAG [Fam3.1 aminoacylation ribozyme variant] | 1.12 | 0.897 | 1.88 | 0.909 | 0.9 | 0.968
AUUACCCUGGUCAUCGCCUGA [Fam2.1 aminoacylation ribozyme variant] | 2.72 | 3.69 | 14.2 | 3.64 | 3.15 | 2.48
AUUCAGCUAUGUCAUCGGGUG [Fam2.2 aminoacylation ribozyme variant] | 2.19 | 3.19 | 16.6 | 3.03 | 2.63 | 3.17
AUUACCCAAGUCAUCGAGUGA [Fam2.1 aminoacylation ribozyme variant] | 4.5 | 9.59 | 42.4 | 9.5 | 4.46 | 8.57
